Experimental findings from paper PMC5778702 are described below.

The assay concerns the target pCMV-HA-H (HA-H), hemagglutinin (H) protein of Peste des petits ruminants virus with HA tag (Peste des petits ruminants virus). As to the kind of experiment: SPR; […]; Biacore 3000, 25 °C, HBS-EP (10 mM HEPES pH 7.4, 150 mM NaCl, 3 mM EDTA, 0.005% P20); […]. In general terms: In SPR one partner is held on a chip, and binding of the other changes the refractive index at the surface.
Usually Kd stands for the constant that tells how readily two partners part at equilibrium. A high value points to a looser complex. The koff is the rate constant with which the complex falls apart. A high value points to a short-lived complex. By kon is commonly meant the second-order rate constant of association. With “pCMV-HA-F (HA-F), fusion (F) protein of Peste des petits ruminants virus with HA tag (natural protein)”, the Kd is 19.1 nM, the koff was determined as 0.000937 s⁻¹ and the kon amounted to 49100 M⁻¹ s⁻¹.

As for “pCMV-HA-HRA (HA-HRA), heptad repeat region A of the PPRV F protein with HA tag (domain or fragment)”, the Kd was determined as 108000 nM, the koff worked out at 0.00414 s⁻¹ and the kon was determined as 38.2 M⁻¹ s⁻¹.

“pCMV-HA-HRB (HA-HRB), heptad repeat region B of the PPRV F protein with HA tag (domain or fragment)” returned a Kd of 260 nM, an off-rate (koff) of 0.00299 s⁻¹ and a kon of 11500 M⁻¹ s⁻¹.
